Measured values taken from patent US20250313605A1.
*1 amine or outer side, *2 acyl side, *3 side chain or, on linkers, in order; H or OH if unused. Where no end group is shown, it is not given here. Side-chain parts run from the residue outwards. [ ]: non-standard residue; d: D form. The star is where a group is joined. C20 diacid = O=C(O)CCCCCCCCCCCCCCCCCCC(=O)*; γGlu = O=C(O)[C@H](CCC(=O)[*:2])N[*:1]; αMeL = CC(C)C[C@](C)(N)C(=O)O; AEEA = NCCOCCOCC(=O)O; Aib = CC(C)(N)C(=O)O

B1: Example 20 (peptide)
peptide: Y[Aib]QGTFTSDYSILLDKK([AEEA-γGlu-C20 diacid])AQ[Aib]AFIEYLLE[Aib]GPSSGAPPPS-NH2
modifications: N-terminus assumed
SMILES: CC[C@H](C)[C@H](NC(=O)[C@H](Cc1ccccc1)NC(=O)[C@H](C)NC(=O)C(C)(C)NC(=O)[C@H](CCC(N)=O)NC(=O)[C@H](C)NC(=O)[C@H](CCCCNC(=O)COCCOCCNC(=O)CC[C@H](NC(=O)CCCCCCCCCCCCCCCCCCC(=O)O)C(=O)O)NC(=O)[C@H](CCCCN)NC(=O)[C@H](CC(=O)O)NC(=O)[C@H](CC(C)C)NC(=O)[C@H](CC(C)C)NC(=O)[C@@H](NC(=O)[C@H](CO)NC(=O)[C@H](Cc1ccc(O)cc1)NC(=O)[C@H](CC(=O)O)NC(=O)[C@H](CO)NC(=O)[C@@H](NC(=O)[C@H](Cc1ccccc1)NC(=O)[C@@H](NC(=O)CNC(=O)[C@H](CCC(N)=O)NC(=O)C(C)(C)NC(=O)[C@@H](N)Cc1ccc(O)cc1)[C@@H](C)O)[C@@H](C)O)[C@@H](C)CC)C(=O)N[C@@H](CCC(=O)O)C(=O)N[C@@H](Cc1ccc(O)cc1)C(=O)N[C@@H](CC(C)C)C(=O)N[C@@H](CC(C)C)C(=O)N[C@@H](CCC(=O)O)C(=O)NC(C)(C)C(=O)NCC(=O)N1CCC[C@H]1C(=O)N[C@@H](CO)C(=O)N[C@@H](CO)C(=O)NCC(=O)N[C@@H](C)C(=O)N1CCC[C@H]1C(=O)N1CCC[C@H]1C(=O)N1CCC[C@H]1C(=O)N[C@@H](CO)C(N)=O
B2: Example 5 (peptide)
peptide: Y[Aib]QGTFTSDYSI[αMeL]LDKK([AEEA-AEEA-γGlu-C20 diacid])AAQAFIEYLLE[Aib]GPSSGAPPPS-NH2
modifications: N-terminus assumed
SMILES: CC[C@H](C)[C@H](NC(=O)[C@H](Cc1ccccc1)NC(=O)[C@H](C)NC(=O)[C@H](CCC(N)=O)NC(=O)[C@H](C)NC(=O)[C@H](C)NC(=O)[C@H](CCCCNC(=O)COCCOCCNC(=O)COCCOCCNC(=O)CC[C@H](NC(=O)CCCCCCCCCCCCCCCCCCC(=O)O)C(=O)O)NC(=O)[C@H](CCCCN)NC(=O)[C@H](CC(=O)O)NC(=O)[C@H](CC(C)C)NC(=O)[C@](C)(CC(C)C)NC(=O)[C@@H](NC(=O)[C@H](CO)NC(=O)[C@H](Cc1ccc(O)cc1)NC(=O)[C@H](CC(=O)O)NC(=O)[C@H](CO)NC(=O)[C@@H](NC(=O)[C@H](Cc1ccccc1)NC(=O)[C@@H](NC(=O)CNC(=O)[C@H](CCC(N)=O)NC(=O)C(C)(C)NC(=O)[C@@H](N)Cc1ccc(O)cc1)[C@@H](C)O)[C@@H](C)O)[C@@H](C)CC)C(=O)N[C@@H](CCC(=O)O)C(=O)N[C@@H](Cc1ccc(O)cc1)C(=O)N[C@@H](CC(C)C)C(=O)N[C@@H](CC(C)C)C(=O)N[C@@H](CCC(=O)O)C(=O)NC(C)(C)C(=O)NCC(=O)N1CCC[C@H]1C(=O)N[C@@H](CO)C(=O)N[C@@H](CO)C(=O)NCC(=O)N[C@@H](C)C(=O)N1CCC[C@H]1C(=O)N1CCC[C@H]1C(=O)N1CCC[C@H]1C(=O)N[C@@H](CO)C(N)=O
B3: Example 4 (peptide)
peptide: Y[Aib]QGTFTSDYSILLDKK([AEEA-γGlu-C20 diacid])AQ[Aib]AFIEYLLA[Aib]GPSSGAPPPS-NH2
modifications: N-terminus assumed
SMILES: CC[C@H](C)[C@H](NC(=O)[C@H](Cc1ccccc1)NC(=O)[C@H](C)NC(=O)C(C)(C)NC(=O)[C@H](CCC(N)=O)NC(=O)[C@H](C)NC(=O)[C@H](CCCCNC(=O)COCCOCCNC(=O)CC[C@H](NC(=O)CCCCCCCCCCCCCCCCCCC(=O)O)C(=O)O)NC(=O)[C@H](CCCCN)NC(=O)[C@H](CC(=O)O)NC(=O)[C@H](CC(C)C)NC(=O)[C@H](CC(C)C)NC(=O)[C@@H](NC(=O)[C@H](CO)NC(=O)[C@H](Cc1ccc(O)cc1)NC(=O)[C@H](CC(=O)O)NC(=O)[C@H](CO)NC(=O)[C@@H](NC(=O)[C@H](Cc1ccccc1)NC(=O)[C@@H](NC(=O)CNC(=O)[C@H](CCC(N)=O)NC(=O)C(C)(C)NC(=O)[C@@H](N)Cc1ccc(O)cc1)[C@@H](C)O)[C@@H](C)O)[C@@H](C)CC)C(=O)N[C@@H](CCC(=O)O)C(=O)N[C@@H](Cc1ccc(O)cc1)C(=O)N[C@@H](CC(C)C)C(=O)N[C@@H](CC(C)C)C(=O)N[C@@H](C)C(=O)NC(C)(C)C(=O)NCC(=O)N1CCC[C@H]1C(=O)N[C@@H](CO)C(=O)N[C@@H](CO)C(=O)NCC(=O)N[C@@H](C)C(=O)N1CCC[C@H]1C(=O)N1CCC[C@H]1C(=O)N1CCC[C@H]1C(=O)N[C@@H](CO)C(N)=O
B4: Example 6 (peptide)
peptide: Y[Aib]QGTFTSDYSI[αMeL]LDKK([AEEA-AEEA-γGlu-C20 diacid])AAQAFIEYLLEGGPSSGAPPPS-NH2
B5: Example 7 (peptide)
peptide: Y[Aib]QGTFTSDYSI[αMeL]LDKK([AEEA-AEEA-γGlu-C20 diacid])AQHAFIEYLLEGGPSSGAPPPS-NH2

Legend:
[1] = molecular target: T1, human GIP receptor (human), P48546; experiment: cell-based or functional assay
T1 chain: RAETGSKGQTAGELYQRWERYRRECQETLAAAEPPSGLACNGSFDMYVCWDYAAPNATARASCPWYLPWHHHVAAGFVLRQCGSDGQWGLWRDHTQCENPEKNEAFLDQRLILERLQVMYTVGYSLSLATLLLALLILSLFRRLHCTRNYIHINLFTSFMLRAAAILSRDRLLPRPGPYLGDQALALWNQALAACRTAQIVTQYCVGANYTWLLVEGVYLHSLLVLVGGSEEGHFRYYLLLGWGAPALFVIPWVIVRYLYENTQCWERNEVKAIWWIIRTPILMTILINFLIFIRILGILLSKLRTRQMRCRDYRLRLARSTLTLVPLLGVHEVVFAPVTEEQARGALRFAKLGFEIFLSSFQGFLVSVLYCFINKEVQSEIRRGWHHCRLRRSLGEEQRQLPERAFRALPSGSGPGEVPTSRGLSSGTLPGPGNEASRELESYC

[2] = molecular target: T2, human GLP-1 receptor (human), P43220; experiment: cell-based or functional assay
T2 chain: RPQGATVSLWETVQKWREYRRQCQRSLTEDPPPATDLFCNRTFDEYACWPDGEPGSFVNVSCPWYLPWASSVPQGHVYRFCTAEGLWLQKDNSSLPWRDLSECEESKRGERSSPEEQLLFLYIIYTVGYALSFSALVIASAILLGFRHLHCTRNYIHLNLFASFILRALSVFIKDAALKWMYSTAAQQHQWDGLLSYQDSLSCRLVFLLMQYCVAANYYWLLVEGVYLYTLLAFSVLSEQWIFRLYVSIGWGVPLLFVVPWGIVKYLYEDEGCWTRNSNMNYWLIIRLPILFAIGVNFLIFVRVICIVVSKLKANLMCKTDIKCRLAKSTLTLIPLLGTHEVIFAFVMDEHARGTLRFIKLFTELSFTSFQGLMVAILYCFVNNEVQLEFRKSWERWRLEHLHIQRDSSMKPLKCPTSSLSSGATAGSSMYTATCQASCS

[3] = molecular target: human glucagon receptor (human), P47871; experiment: cell-based or functional assay
Sequence of human glucagon receptor (human), P47871 (P47871 26-477): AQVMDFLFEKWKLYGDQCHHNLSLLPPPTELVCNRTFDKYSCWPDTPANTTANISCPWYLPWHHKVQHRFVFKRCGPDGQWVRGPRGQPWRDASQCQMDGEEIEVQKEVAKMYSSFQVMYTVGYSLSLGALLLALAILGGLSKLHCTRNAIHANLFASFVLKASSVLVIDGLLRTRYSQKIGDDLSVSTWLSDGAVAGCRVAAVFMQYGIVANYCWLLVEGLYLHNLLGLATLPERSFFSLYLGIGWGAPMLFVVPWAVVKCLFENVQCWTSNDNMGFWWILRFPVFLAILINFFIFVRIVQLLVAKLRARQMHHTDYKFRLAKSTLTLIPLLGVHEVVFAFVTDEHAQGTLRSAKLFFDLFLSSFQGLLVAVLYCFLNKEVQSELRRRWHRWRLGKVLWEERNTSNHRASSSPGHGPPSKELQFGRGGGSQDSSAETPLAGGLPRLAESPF

[4] = molecular target: T1, human GIP receptor (human), P48546; experiment: radioligand competition SPA, HEK293 membranes
[5] = molecular target: T2, human GLP-1 receptor (human), P43220; experiment: radioligand competition SPA, HEK293 membranes
[6] = molecular target: human glucagon receptor (human), P47871; experiment: radioligand competition SPA, HEK293 membranes

| Binder | cAMP EC50 (0.1% casein) [1] [nM] | cAMP EC50 (FBS and BSA present) [1] [nM] | cAMP EC50 (0.1% casein) [2] [nM] | cAMP EC50 (FBS and BSA present) [2] [nM] | cAMP EC50 (0.1% casein) [3] [nM] | cAMP EC50 (FBS and BSA present) [3] [nM] | Ki [4] [nM] | Ki [5] [nM] | Ki [6] [nM] |
| --- | --- | --- | --- | --- | --- | --- | --- | --- | --- |
| B1 | 0.0572 | 3.7 | 0.149 | 20.6 | 0.0641 | 3.97 | 0.109 | 9.23 | 3.76 |
| B2 | 0.0757 | 4.86 | 0.147 | 22.3 | 0.0226 | 1.47 | 0.179 | 36.7 | 0.422 |
| B3 | 0.0648 | 1.55 | 0.18 | 10.4 | 0.0674 | 2.49 | 0.0374 | 3.54 | 2.55 |
| B4 | 0.274 | 7.41 | 0.142 | 21.2 | 0.0282 | 1.99 | 0.249 | 36.7 | 0.835 |
| B5 | 0.0798 | 4.38 | 0.109 | 15.5 | 0.18 | 14.2 | 0.11 | 21.4 | 16.3 |
